Measurements: US20230375528

Assays:
[1] = biological target: ENO1down (ENO1-K343A) (Homo sapiens) (UniProt P06733); assay: EMSA; details: competition EMSA
[2] = biological target: ENO1 wild type (Enolase 1) (Homo sapiens) (UniProt P06733); assay: EMSA
Sequence of ENO1 wild type (Enolase 1) (Homo sapiens) (P06733 2-434): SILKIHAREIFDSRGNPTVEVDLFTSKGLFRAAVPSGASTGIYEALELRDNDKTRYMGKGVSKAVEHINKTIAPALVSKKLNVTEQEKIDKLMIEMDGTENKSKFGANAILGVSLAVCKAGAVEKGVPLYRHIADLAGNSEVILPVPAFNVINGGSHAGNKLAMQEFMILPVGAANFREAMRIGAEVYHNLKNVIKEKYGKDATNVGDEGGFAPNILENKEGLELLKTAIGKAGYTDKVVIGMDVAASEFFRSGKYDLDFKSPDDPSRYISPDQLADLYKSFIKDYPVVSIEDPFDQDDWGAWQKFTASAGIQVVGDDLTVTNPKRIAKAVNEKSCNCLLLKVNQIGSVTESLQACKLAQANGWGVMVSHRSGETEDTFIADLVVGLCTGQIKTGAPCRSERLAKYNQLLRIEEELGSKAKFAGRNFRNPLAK

Sequence of ENO1down (ENO1-K343A) (Homo sapiens) (P06733 whole entry K343A): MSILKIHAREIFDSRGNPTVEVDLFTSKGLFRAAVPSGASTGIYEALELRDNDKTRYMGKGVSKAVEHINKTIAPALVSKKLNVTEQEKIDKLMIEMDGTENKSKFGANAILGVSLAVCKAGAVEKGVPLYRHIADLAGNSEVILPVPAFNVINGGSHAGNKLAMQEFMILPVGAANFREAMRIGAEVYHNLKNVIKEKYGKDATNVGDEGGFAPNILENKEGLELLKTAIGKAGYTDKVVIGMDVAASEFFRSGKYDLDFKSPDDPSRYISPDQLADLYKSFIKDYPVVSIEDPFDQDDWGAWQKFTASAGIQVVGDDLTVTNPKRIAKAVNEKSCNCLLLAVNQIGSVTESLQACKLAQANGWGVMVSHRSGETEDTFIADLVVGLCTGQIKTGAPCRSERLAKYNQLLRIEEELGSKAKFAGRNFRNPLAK

Question: Which results are given for “PABPC1 control 35-mer RNA (GC-matched, downstream of binding site)”?
Answer: Ki [1]: 3260 nM; Ki ([2]; competition EMSA with labelled PABPC1 target probe): 2590 nM

Question: What does the source list for PABPC1 5'UTR target 35-mer RNA?
Answer: Ki ([1]; about 5-10-fold decreased RNA binding vs wt): 224 nM; Ki ([2]; competition EMSA with labelled PABPC1 target 35-mer probe): 27 nM
